We go through 5 molecules from US20150335669A1 (SAMSUNG ELECTRONICS, published 2015).

The target of experiment [1] is T1, human c-Met/Fc fusion protein (R&D Systems) (human, UniProt P08581 25-932).
T1 construct: Bought reagent; treated here as the same reagent; also called c-Met-Fc (#358-MT/CF, R&D Systems); human c-Met/Fc protein; not shown: Fc part of the bought fusion protein
In words: ELISA, human c-Met/Fc fusion protein coated on the plate, hybridoma culture supernatant. As to the method: The hybridoma cell culture obtained in Reference Example 1.1.2 was added in an amount of 50 μL to each well of the plates and incubated for 1 hour. The cells remaining unreacted were washed out with a sufficient amount of Tris-buffered saline and Tween 20 (TBST). Goat anti-mouse IgG-horseradish peroxidase (HRP) was added to the plates and incubated for 1 hour at room temperature. The plates were washed with a sufficient amount of TBST, followed by reacting the peroxidase with a substrate (OPD). Absorbance at 450 nm was measured on an ELISA reader.

Experiment [2] has as its target T1, human c-Met/Fc fusion protein (R&D …). As to the kind of experiment: SPR, Biacore T100; antibody captured by human Fab binder on CM5 chip, c-Met-Fc injected. As to the method:
To confirm whether the prepared PEG-introduced antibodies containing PEG with various molecular weights can maintain the binding affinity to the antigen, the binding affinity of the prepared PEG-introduced antibodies to c-Met was measured using Biacore T100(GE) and compared with that of an antibody with no PEG (Ab).
In particular, human Fab binder (GE Healthcare) was fixed on a surface of CM5 chip (#BR-1005-30, GE) according to the manufacturer's manual. About 90 to 120 Ru of each of the PEG-introduced antibodies was captured, and c-Met-Fc (#358-MT/CF, R&D Systems) was injected at various concentrations into the captured PEG-introduced antibody. 10 mM Glycine-HCl (pH 1.5) solution was injected thereto to regenerate the surface. In order to measure affinity, the data obtained from this experiment was fitted using BIAevaluation software (GE Healthcare, Biacore T100 evaluation software).
A general note: Surface plasmon resonance follows binding to a sensor surface in real time, without labels.

The Kd is the free concentration of one partner at which half of the binding sites on the other are occupied at equilibrium, for simple one-to-one binding. A higher Kd goes with weaker binding.

T1 sequence (P08581 25-932 limits assumed): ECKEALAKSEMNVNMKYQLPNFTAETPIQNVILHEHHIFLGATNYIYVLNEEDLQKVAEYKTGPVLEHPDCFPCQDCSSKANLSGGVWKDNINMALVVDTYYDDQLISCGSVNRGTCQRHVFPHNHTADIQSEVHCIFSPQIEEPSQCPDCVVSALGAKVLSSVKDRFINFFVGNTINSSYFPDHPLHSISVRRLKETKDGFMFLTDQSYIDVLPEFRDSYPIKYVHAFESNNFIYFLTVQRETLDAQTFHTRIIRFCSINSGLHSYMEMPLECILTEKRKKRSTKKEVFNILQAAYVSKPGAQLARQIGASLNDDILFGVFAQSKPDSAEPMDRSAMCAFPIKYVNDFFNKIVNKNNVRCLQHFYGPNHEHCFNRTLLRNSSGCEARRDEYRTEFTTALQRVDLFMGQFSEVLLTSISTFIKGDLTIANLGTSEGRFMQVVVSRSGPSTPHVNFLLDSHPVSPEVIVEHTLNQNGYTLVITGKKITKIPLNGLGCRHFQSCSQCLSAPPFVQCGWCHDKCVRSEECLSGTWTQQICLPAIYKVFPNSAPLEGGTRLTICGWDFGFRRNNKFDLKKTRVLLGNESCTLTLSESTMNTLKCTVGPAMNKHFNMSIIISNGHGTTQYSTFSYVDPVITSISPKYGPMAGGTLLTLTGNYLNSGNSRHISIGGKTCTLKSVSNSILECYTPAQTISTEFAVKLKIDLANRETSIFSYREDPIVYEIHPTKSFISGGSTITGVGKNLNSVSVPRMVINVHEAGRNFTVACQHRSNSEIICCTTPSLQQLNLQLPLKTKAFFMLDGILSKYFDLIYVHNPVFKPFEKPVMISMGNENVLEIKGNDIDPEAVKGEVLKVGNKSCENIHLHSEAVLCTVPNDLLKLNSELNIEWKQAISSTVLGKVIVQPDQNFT

B1: AbF46, mouse monoclonal antibody to c-Met (hybridoma KCLRF-BP-00220) (antibody, V domains shown)
VH: EVKLVESGGGLVQPGGSLRLSCATSGFTFTDYYMSWVRQPPGKALEWLGFIRNKANGYTTEYSASVKGRFTISRDNSQSILYLQMDTLRAEDSATYYCARDNWFAYWGQGTLVTVSA
VL: DILMTQSPSSLTVSAGEKVTMSCKSSQSLLASGNQNNYLAWHQQKPGRSPKMLIIWASTRVSGVPDRFIGSGSGTDFTLTINSVQAEDLAVYYCQQSYSAPLTFGAGTKLELK
notes: Tested as hybridoma culture supernatant in the selection ELISA; also called mouse antibody AbF46
Take B1: the binding result in experiment [1] is “binds”.

B2: PEG-introduced antibody L3-1Y/IgG2 with 30 kDa polyethyleneglycol (antibody, V domains shown)
VH: EVQLVESGGGLVQPGGSLRLSCAASGFTFTDYYMSWVRQAPGKGLEWLGFIRNKANGYTTEYSASVKGRFTISRDNSKNTLYLQMNSLRAEDTAVYYCARDNWFAYWGQGTLVTVSS
VL: DIQMTQSPSSLSASVGDRVTITCKSSQSLLASGNQNNYLAWYQQKPGKAPKMLIIWASTRVSGVPSRFSGSGSGTDFTLTISSLQPEDFATYYCQQSYSRPYTFGQGTKVEIKR
modifications: see heavy chain: the PEG may stand at the N-terminus of a light chain instead; 30 kDa methoxypolyethyleneglycol at the N-terminus of the antibody (N-terminus of a heavy chain or of a light chain; which one is not resolved); mono-PEG per paragraph 213
notes: also called 30kPEG Ab; mono-PEG antibody (30 kDa)
In experiment [2], B2 yielded a Kd of 0.0619 nM.

B3: PEG-introduced antibody L3-1Y/IgG2 with 20 kDa polyethyleneglycol (antibody, V domains shown)
VH: EVQLVESGGGLVQPGGSLRLSCAASGFTFTDYYMSWVRQAPGKGLEWLGFIRNKANGYTTEYSASVKGRFTISRDNSKNTLYLQMNSLRAEDTAVYYCARDNWFAYWGQGTLVTVSS
VL: DIQMTQSPSSLSASVGDRVTITCKSSQSLLASGNQNNYLAWYQQKPGKAPKMLIIWASTRVSGVPSRFSGSGSGTDFTLTISSLQPEDFATYYCQQSYSRPYTFGQGTKVEIKR
modifications: see heavy chain: the PEG may stand at the N-terminus of a light chain instead; 20 kDa methoxypolyethyleneglycol at the N-terminus of the antibody (N-terminus of a heavy chain or of a light chain; which one is not resolved); mono-PEG per paragraph 213
notes: also called 20kPEG Ab; mono-PEG antibody (20 kDa)
For the molecule B3, the Kd in experiment [2] is 0.0729 nM.

B4: PEG-introduced antibody L3-1Y/IgG2 with 10 kDa polyethyleneglycol (antibody, V domains shown)
VH: EVQLVESGGGLVQPGGSLRLSCAASGFTFTDYYMSWVRQAPGKGLEWLGFIRNKANGYTTEYSASVKGRFTISRDNSKNTLYLQMNSLRAEDTAVYYCARDNWFAYWGQGTLVTVSS
VL: DIQMTQSPSSLSASVGDRVTITCKSSQSLLASGNQNNYLAWYQQKPGKAPKMLIIWASTRVSGVPSRFSGSGSGTDFTLTISSLQPEDFATYYCQQSYSRPYTFGQGTKVEIKR
modifications: see heavy chain: the PEG may stand at the N-terminus of a light chain instead; 10 kDa methoxypolyethyleneglycol at the N-terminus of the antibody (N-terminus of a heavy chain or of a light chain; which one is not resolved); mono-PEG per paragraph 213
notes: also called 10kPEG Ab; mono-PEG antibody (10 kDa)
In experiment [2], B4 came in with a Kd of 0.0859 nM.

B5: anti-c-Met antibody L3-1Y-IgG2 (huAbF46-H4-A1 (IgG2 Fc)) (antibody, V domains shown)
VH: EVQLVESGGGLVQPGGSLRLSCAASGFTFTDYYMSWVRQAPGKGLEWLGFIRNKANGYTTEYSASVKGRFTISRDNSKNTLYLQMNSLRAEDTAVYYCARDNWFAYWGQGTLVTVSS
VL: DIQMTQSPSSLSASVGDRVTITCKSSQSLLASGNQNNYLAWYQQKPGKAPKMLIIWASTRVSGVPSRFSGSGSGTDFTLTISSLQPEDFATYYCQQSYSRPYTFGQGTKVEIKR
notes: also called antibody with no PEG
Turning to B5, the Kd in experiment [2] came out at 0.0823 nM. This Kd and that of the molecule before are within 1.5-fold of each other.
